Data reported in PMC5493969.

Target: MBP + FGFR2 31-406 (ECD + TM) (human) (UniProt P21802)
Experiment: SEC; main elution fraction (1.5 M NaCl, 0.1% DDM) of a heparin affinity column loaded first with FGF1 and then with refolded MBP-FGFR2 ECD + TM, run on size exclusion chromatography; peaks analysed by SDS-PAGE and western blot (anti-MBP, anti-His-tag)

stoichiometry N: 2
Substance: MBP + FGFR2 31-406 (ECD + TM) (from UniProt P21802 31-406) (domain or fragment)
